Laboratory results reported in the supplement of paper PMC10567573.

B1: CLK3 (parent)
chain: FGEDYYGPSRSRHRRRSRERGPYR

Variants of: B1
Assay: protein stability index of a GFP-peptide fusion (GPS, HEK-293T) (PSI 1-6); higher = more stable
Conditions: c terminus: a fixed tail appended
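Note: lentivirally expressed fusions sorted by FACS into six bins by GFP to DsRed ratio, PSI derived from sequencing read proportions per bin multiplied by bin number.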

Protein stability index, by site and new letter:
E3: H 4.21, A 3.9, V 4.08, C 3.26, F 4.87, Y 4.08, W 3.63, L 4.43, P 3.41, K 3.96, I 4.08, M 3.83, N 3.63, G 2.27, Q 4.38, S 1.73, R 3.46, D 2.86, T 3.75
G7: W 2.06, A 3.32, I 4.23, S 3.25, H 2.07, E 4.32, R 3.07, V 4.13, K 3.71, Y 2.78, C 2.95, M 3.06, N 2.06, T 3.53, Q 2.82, L 2.96, D 3.27
S9: W 2.17, K 2.74, V 2.38, L 2.55, H 2.33, C 2.35, E 2.73, Q 2.63, Y 2.56, M 1.69, D 2.84, T 2.58, R 3, P 2.56, G 3.16, I 2.47, N 2.82, F 2.21, A 2.39
F1: T 5.16, K 4.99, D 5.21, Q 5.13, I 4.57, S 5.1, Y 3.36, H 4.65, C 4.54, V 5.33, E 5.1, M 4.92, W 4.57, L 4.08, R 5.35, N 4.44, P 4.87, A 4.83, G 4.79
G2: V 1.03, D 5.06, P 3.52, N 4.4, H 2.5, M 3.85, Q 2.49, S 2.96, I 1.99, T 2.65, E 4.89, Y 4.01, W 4.3, A 2.87, L 3.38, C 2.52, K 4.75, F 3.98, R 4.89
Y5: C 4.48, H 4.64, V 4.36, R 5.21, A 3.53, D 4.95, F 3.11, P 4.3, N 4.51, E 4.86, M 3.5, K 5.11, S 3.8, Q 4.7, L 4.47, I 4.44, T 5.24, G 4
D4: V 3.58, Y 3.63, I 3.86, Q 2.55, C 2.81, K 3.44, N 2.1, R 3.34, M 2.29, A 3.2, T 3.38, H 3.52, W 2.16, P 3.59, L 2.5, G 1.9, E 3.79, F 3.2, S 2.21
Y6: L 3.98, E 4.84, K 5.1, F 2.4, W 2.52, M 4.17, H 4.07, Q 5.36, D 4.59, S 4.96, V 4.02, C 4.75, P 4.78, R 4.67, G 5.15, T 4.27, N 4.47, A 4.61, I 4.38
P8: L 1.51, S 2.38, Y 2.99, N 2.32, T 2.61, C 2.48, F 1.74, E 2.56, V 1.42, K 1.58, A 1.71, R 1.44, G 2.3, H 1.61, D 1.92, Q 1.59, W 1.53, I 2.19
